# Earlier results in article PMC13042399.
# Target: IGF2 (Homo sapiens) (UniProt P01344)
# Sequence (P01344 25-91): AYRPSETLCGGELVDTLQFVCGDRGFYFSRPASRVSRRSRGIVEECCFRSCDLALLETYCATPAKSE
substance,measurement,value
IGF2R (from UniProt P11717),Kd,40 nM
